Experimental data published in patent US20230301998A1, “METHODS AND COMPOSITIONS FOR INDUCTION OF ANTITUMOR IMMUNITY” (Sanford Burnham Prebys Medical Discovery Institute, priority 2020, published 2023).

Tested on: Nlrc5 and Nlrc5 target genes
Test: Expression of antigen presentation genes / surface MHCI in B16 cells
Assay type: cell-based, mouse
Details: B16 cells stimulated 24 hr (FIGS. 13E-G)

B1: interferon-gamma: interferon gamma (R&D Systems) used to stimulate cells (protein, UniProt P01579 24-161, looked up)
Interferon gamma: QDPYVKEAENLKKYFNAGHSDVADNGTLFLGILKNWKEESDRKIMQSQIVSFYFKLFKNFKDDQSIQKSVETIKEDMNVKFFNSNKKKRDDFEKLTNYSVTDLNVQRKAIHELIQVMAELSPAAKTGKRKRSQMLFRG
expression of PSMB9 and surface expression of MHCI (H-2Kb): increased
